# Test results as given in paper PMC7895871 (Protein & Cell, 2020).
# B1: MCU (mitochondrial calcium uniporter), subunit of the human MCU-EMRE-MICU1-MICU2 supercomplex (MEMMS) (natural protein)
# chain: DDVTVVYQNGLPVISVRLPSRRERCQFTLKPISDSVGVFLRQLQEEDRGIDRVAIYSPDGVRVAASTGIDLLLLDDFKLVINDLTYHVRPPKRDLLSHENAATLNDVKTLVQQLYTTLCIEQHQLNKERELIERLEDLKEQLAPLEKVRIEISRKAEKRTTLVLWGGLAYMATQFGILARLTWWEYSWDIMEPVTYFITYGSAMAMYAYFVMTRQEYVYPEARDRQYLLFFHKGAKKSRFDLEKYNQLKDAIAQAEMDLKRLRDPLQVHLPLRQIG
# notes: MCU, human; pore-forming subunit with NTD, CCD and TMD; Four MCU subunits form one channel (tetramer); the supercomplex holds two such tetramers joined at the NTDs; Construct limits and any tags are in the supplementary Methods; source: HEK 293F cells transfected by BacMam viruses, co-expressed; complex pulled down by the C-terminally Strep-tagged EMRE
# Biological target: the molecule itself
# Assay: cryo-EM structure; human MCU-EMRE-MICU1-MICU2 supercomplex co-expressed in HEK 293F, pulled down by C-terminally Strep-tagged EMRE; Titan Krios, K2; overall map 3.3–3.7 Å
protein,measurement,value
B1,stoichiometry N,4
